Values of other authors in patent US20080113011A1, “Compositions and methods for enhanced mucosal delivery of interferon beta” (Nastech Pharmaceutical Company Inc., priority 2002, published 2008).
Read-outs that look alike come from different tables or passages of the source.

Conditions: anesthetized rats

## human growth hormone: human growth hormone given nasally to anesthetized rats with or without N-acetyl-L-cysteine
With N-acetyl-L-cysteine (ACS)
  nasal bioavailability: 12.2%
Without N-acetyl-L-cysteine
  nasal bioavailability: 7.5%
